Data on two substances can be found in publication PMC4259310.

Assay [1] has as its target Snake Adenovirus 1 (SnAdV-1) fibre head domain, construct 234-345, native (Snake Adenovirus 1 (SnAdV-1)). As to the kind of experiment: crystal structure.
In assay [2] the target is Snake Adenovirus 1 (SnAdV-1) fibre protein construct 171-345 (Snake Adenovirus 1 (SnAdV-1)). Kind of assay: crystal structure.

“Snake Adenovirus 1 (SnAdV-1) fibre head domain, construct 234-345, native (domain or fragment)” came in with a stoichiometry N in assay [1] of 3.
“Snake Adenovirus 1 (SnAdV-1) fibre protein construct 171-345 (domain or fragment)”: the stoichiometry N in assay [2] was determined as 3.

By stoichiometry N is commonly meant the number of molecules, sites or subunits per partner or assembly.
